In patent US20220227882A1 (TRUSTEES OF TUFTS COLLEGE, published 2022):
Substitutions are numbered along the chain they refer to.

Legend:
K458A = molecular target: T1, K458A (Homo sapiens, UniProt P78325); assay: high-throughput flow cytometry, HEK293 cells with mutant ADAM8, high stringency; range in parentheses; dotted box
T1 construct: expressed on HEK293 cells; also called human ADAM8 point mutant K458A
T1 sequence (ADAM8, looked up): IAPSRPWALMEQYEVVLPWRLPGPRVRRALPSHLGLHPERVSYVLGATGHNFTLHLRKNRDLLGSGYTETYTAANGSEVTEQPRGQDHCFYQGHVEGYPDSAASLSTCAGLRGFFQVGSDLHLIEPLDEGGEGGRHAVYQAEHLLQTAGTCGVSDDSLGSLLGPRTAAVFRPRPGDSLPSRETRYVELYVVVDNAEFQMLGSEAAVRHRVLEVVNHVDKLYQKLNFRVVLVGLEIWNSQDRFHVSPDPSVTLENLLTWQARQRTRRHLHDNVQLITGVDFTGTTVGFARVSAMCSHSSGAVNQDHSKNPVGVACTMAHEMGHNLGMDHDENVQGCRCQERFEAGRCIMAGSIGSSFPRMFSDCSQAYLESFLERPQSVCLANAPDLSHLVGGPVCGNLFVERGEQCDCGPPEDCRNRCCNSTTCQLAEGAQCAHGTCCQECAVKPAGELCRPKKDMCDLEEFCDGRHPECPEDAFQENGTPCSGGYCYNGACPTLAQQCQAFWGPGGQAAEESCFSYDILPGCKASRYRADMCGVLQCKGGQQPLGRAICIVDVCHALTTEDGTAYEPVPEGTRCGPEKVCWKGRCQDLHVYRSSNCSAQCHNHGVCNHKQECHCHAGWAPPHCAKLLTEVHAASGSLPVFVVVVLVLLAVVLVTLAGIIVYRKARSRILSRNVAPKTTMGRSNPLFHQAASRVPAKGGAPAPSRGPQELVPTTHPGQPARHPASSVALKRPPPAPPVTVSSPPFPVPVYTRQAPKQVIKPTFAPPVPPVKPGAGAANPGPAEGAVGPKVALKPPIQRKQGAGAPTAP
Method: (§1) A variety of experimental parameters were optimized for high-throughput flow cytometry including blocking buffer, and primary and secondary antibody concentrations, to identify the optimal conditions for screening. Through these studies ADP2 and ADP13 were determined to be high affinity binding antibodies.
(§2) Thus, for these studies antigen-binding fragments (Fabs) of ADP2 and ADP13, which bind with lower affinity than the full antibody, were generated. In addition, higher binding stringency conditions were tested, such as increased pH, salinity, and temperature, and/or increased washing, to weaken binding sufficiently to allow identification of critical binding residues in flow cytometry. The final experimental flow cytometry conditions were: primary antibody incubation with ADP2 Fab (0.50 μg/ml), ADP13 Fab (5.00 μg/ml) and Control Ab (0.16 μg/ml) for 60 minutes in flow cytometry buffer containing 10% goat serum in PBS (Ca²⁺ and Mg²⁺ free). […] Samples were washed three times after primary antibody incubation and twice after secondary antibody incubation with PBS (Ca²⁺ and Mg′ free). Next, HEK293 cells expressing WT or mutated ADAM8 proteins or EV DNA were incubated with ADP2 or ADP13 Fabs or Control Ab at their optimal concentrations. Fab binding was detected using Alexa Fluor 488-conjugated secondary antibodies and mean cellular fluorescence determined using the Intellicyt iQue flow cytometry platform. […] This counter-screen strategy facilitates the exclusion of mutants that are locally misfolded or that have an expression defect. Binding of each test Fab to each mutant clone in the alanine scanning library was determined, in duplicate, by high-throughput flow cytometry.

V459A = molecular target: T2, V459A (Homo sapiens, UniProt P78325); assay: as above
T2 construct: expressed on HEK293 cells; also called human ADAM8 point mutant V459A
T2 sequence (ADAM8, looked up): T1 sequence (ADAM8, looked up) with A442K, V443A
Method: as §1, §2

B1: ADP2 Fab (Fab, V domains shown)
VH: EVKLVESGGGLVQPGGSLSLSCAASGFSFPDYYMSWVRQPPGKALEWLGFIRDSANGYTTEYIASVKGRFTFSRDNSQSILYLQMNALRAEDSATYYCARYSRYYGMDYWGQGTSVTVSS
VL: SIVMTQTPKILLVSAGDRVTITCKASQTVNYDVAWYQQKPGQSPKPVIYFASNRYTGVPDRFTGSGFGTDFTFTISTVQAEDLAVYFCQQDYSAPWTFGGGTKLEIK
Binding Reactivity (% WT) (K458A): 28 % WT

B2: ADP13 Fab (Fab, V domains shown)
VH: EVQLQQSGPEMVKPGTSVKISCKASGYTFTDYYINWVKQSHGKSLEWIGDISPNIGGATYNPKFKGKAILTVDKSARTAYMELRSLTSEDSAVYCCTRGGSSYPYFYAMDYWGQGTSVTVSS
VL: DIVMSQSPSSLAVSVGEKVTMSCKSSQSLLYSSNQKKYLAWYQQKPGQSPKLLIYWASTRESGVPDRFTGSGSGTDFTLTISSVKAEDLAVYYCQQFYSYPYTFGGGTKLEINR
Binding Reactivity (% WT) (V459A): 27.8 % WT
